System: MS2 coat protein
Test: apparent KD of MS2 coat protein; designed switch direction (-1 OFF switch, 1 ON switch): 1; higher = weaker reporter binding
Procedure, shortened: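 Normalised cluster fluorescence was curve-fitted, and each design's median over clusters is its apparent KD. Before this, SNAP-549-labelled MS2 coat protein was titrated from 0.7 or 1.5 nM, doubling to 3 µM, over RNA switches transcribed on Illumina chips by stalled E. coli RNA polymerase. Titrations had no input, 200 uM small-molecule ligand, or an oligonucleotide input, and steps lasted 0.8–1.5 h (lowest) to 10–20 min (highest).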

[1] = Eterna round: R95, input ligand: microRNA oligo, concentration not stated
[2] = input ligand: microRNA oligo, concentration not stated
[3] = Eterna round: R95, input ligand: FMN 200 uM
[4] = Eterna round: R95, input ligand: none

Row | Sequence | apparent KD of MS2 coat protein [1] [nM] | apparent KD of MS2 coat protein (input ligand: FMN 200 uM) [nM] | apparent KD of MS2 coat protein [2] [nM] | apparent KD of MS2 coat protein (input ligand: none) [nM] | apparent KD of MS2 coat protein [3] [nM] | apparent KD of MS2 coat protein [4] [nM]
1 | GGAGGACAUGAGGAUCACCCAUGUGGAUGAUCGCUAGGAUAUGCGUGCAGGAAGAGUGGUGCAGAAGGAGUGGGAU [JR_SS1_Sub048] (puzzle: Same State 1) | 348 |  |  |  |  | 
2 | UGUAUACAUGAGGAUCACCCAUGUCAACGUAGUCGAGGAUAUGGGCAGCCGUGAGGCGUACUAGAAGGCGAAGAGG [JL-ss1-3.06 ViennaUCT mod] (puzzle: Same State 1) | 116 |  |  |  |  | 
3 | AUUUUUCAUGCAGGAUAUGAUUAACAUGAGGAUCACCCAUGUGGUGUUGUGAGUAAGGAGAGUGAUCAGAAGGGCAUUUUUUUU [JMF's solution 94] (Eterna round: R96, puzzle: Same State NG 2) |  | 837 | 342 | 503 |  | 
4 | UCUUGGUUUUUGCUCGUUUUUUGUGUUGAACAUGAGGAUCACCCAUGUAUUGUACGGUCCGGUUUGAUAAUGGUCCG [JMF 13] (puzzle: Sensor for hsa-mir-208a) | 15.5 |  |  |  | 26 | 27.1
5 | UUGCAGUCAGGUGAGGAUAUCAUGAAUUAAACAUGAGGAUCACCCAUGUGCUGCCUUGCAGCAUAUGAGAAGGCACCUGGCUGCU [JL-ss2-3.01 Brourd Mod] (puzzle: Same State 2) | 185 |  |  |  | 65.2 | 640
6 | GAGAGAGGAUGAGGAUAUGCAGUAAUAAUGAUAGCAGAAGGCAUAGACAUGAGGAUCACCCAUGUGGGAAUAAUCCAGAGAGAG [Parity 1 - Jieux - Same State NG 1] (Eterna round: R96, puzzle: Same State NG 1) |  |  | 132 |  |  | 
7 | GGCCUCUGUCAAGGAUAUGCUACCGUUUCGGUAGCAGAAGGUGAUCACAUGAGGAUCACCCAUGUUUAGGCCAACAGGCCCGCC (Eterna round: R96, puzzle: Same State NG 1) |  | 1420 | 445 | 1070 |  | 
8 | UAGUGCGUUAGAGGAUAUUCUAAAAUAAAAUAAAAGACAUGAGGAUCACCCAUGUAUGUACAUGGGAAGAAGGCUGAUGUGCUA [Omei SS(NG)2 Bv1] (Eterna round: R96, puzzle: Same State NG 2) |  |  | 296 |  |  | 
9 | GUUACAUGAGGAUCACCCAUGUAUGUGUGGGAGUAAGUGUCUUAGGAUAUCUAGUAUUUAGUUUAAGAGAAGGAAGAUUGUUGU [JMF's solution 61] (Eterna round: R96, puzzle: Same State NG 3) |  | 127 | 90 | 88.2 |  | 
10 | AUUACUAGCAUAGGAUAUCAUGCGAAAAUUGCGUGAGAAGGGUGGACGCUGUCAUUCACGGAAGACAUGAGGAUCACCCAUGUC [SameState NG1 #74] (Eterna round: R96, puzzle: Same State NG 1) |  | 142 | 68.5 | 94 |  | 
11 | CGUAGGCCUCUCAACAUGAGGAUCACCCAUGUACGUGAAACGUAGGAUAUCACACAACUAAUGUGUGAGAAGGGCGCGCCGGAG [Eternabot solution 25] (Eterna round: R96, puzzle: Same State NG 3) |  |  | 91.4 |  |  | 
12 | GGUCCAGCCUGAGCUGGACCGAAGCGUGUACAUGAGGAUCACCCAUGUCAUGUACAAGCUUUUUGCUCGUCUUAUUG [JL-shm-2.10 JL Mod] (puzzle: Sensor for hsa-mir-208a) | 18.8 |  |  |  | 149 | 285
13 | GCCGUAUAAACAUGAGGAUCACCCAUGUGCGCGAGAGCGAAUGAGGAUAUCGAUGGGUUUCCCGUCGAGAAGGCGUGGGUCGGC [JL SSNG3 3.96] (Eterna round: R96, puzzle: Same State NG 3) |  | 37.7 | 76.4 | 96.3 |  | 
14 | CCGUAAUAUGGAGGAUAUGGAGCCUUAUUGGCUCCAGAAGGUCAUAACACAUGAGGAUCACCCAUGUCGGCGGUCAAUAGACCG [Eli NG1ss - 76] (Eterna round: R96, puzzle: Same State NG 1) |  | 19.4 | 74.9 | 68.3 |  | 
15 | GAGCCAGUCCGAGGAUAUUCAUAUUAACACAUGAGGAUCACCCAUGUAGGCUCAGAAGAGCCUUGGGAGAAGGCGGACUGGCUC [SS-NG2-LRO14] (Eterna round: R96, puzzle: Same State NG 2) |  | 35.2 | 227 | 311 |  | 
16 | GAGGGACAGACCAACAUGAGGAUCACCCAUGUCCUCGCAGGUCAGGAUAUUAUGAGGAUCACCCGUGAGAAGGGACGGUGAAUU (Eterna round: R96, puzzle: Same State NG 3) |  | 709 | 390 | 804 |  | 

Row | Sequence | apparent KD of MS2 coat protein [1] [nM] | apparent KD of MS2 coat protein (input ligand: FMN 200 uM) [nM] | apparent KD of MS2 coat protein [2] [nM] | apparent KD of MS2 coat protein (input ligand: none) [nM] | apparent KD of MS2 coat protein [3] [nM] | apparent KD of MS2 coat protein [4] [nM]
17 | GUUACAUGAGGAUCACCCAUGUAUGUGUGGGAGUAAGUGUCUUAGGAUAUCUGUUAUUUGAUUUAAGAGAAGGAAGAUUGUUGU [JMF's solution 40] (Eterna round: R96, puzzle: Same State NG 3) |  | 123 | 78.4 | 92.8 |  | 
18 | CGUCCAGCCUGAGCUGGACAAAAGCAUGUACAUGAGGAUCACCCAUGUUCAUGUACAAGCUUUUUGCUCGUCUUAGC [salish99_208a_r3_075] (puzzle: Sensor for hsa-mir-208a) | 14.3 |  |  |  | 730 | 860
19 | AGAUGUUAAUCAGGAUAUGGGCCCGUGAGGAUCACCCACGGAAAGUAGGUCCAACAGGGCCCAGUCUAGAAGGGAUGGCUAACA [malcolm 80 ssNG2 F5+F7.2] (Eterna round: R96, puzzle: Same State NG 2) |  | 112 | 19.8 | 84 |  | 
20 | UUGCUCGUGUGAGGAUAUGCAGCCGUUUCGGCUGCAGAAGGUACUAUAAUACAUGAGGAUCACCCAUGUCUCUAUUGUUUAGUG [salish99_SSNG1_r04_927] (Eterna round: R96, puzzle: Same State NG 1) |  | 25.7 | 19.6 | 26.7 |  | 
21 | GGUCCAGCCUGAGCUGGACAAAAGCAUGUACAUGAGGAUCACCCAUGUCAUGUACAAGCUUUUUGCUCGUCUAAAUA [Mat - hsa-mir-208a - 90] (puzzle: Sensor for hsa-mir-208a) | 16.3 |  |  |  | 464 | 557
22 | GAGGAUGAUUUACAGGAUAUAUAGCAGAUGACAUGAGGAUCACCCAUGUAAGAGAAAGGAGGGAGAUAGAAGGGUAUGGGAUGUG [JR_SS2_Sub039] (puzzle: Same State 2) | 21.5 |  |  |  | 29.9 | 22.3
23 | ACAUGAGACUUAGGAUAUCUUGUACCUACAUGUGACAUGAGGAUCACCCAUGUGGUAAGUAUGAGGGAGAAGGAAGAGAUAUGU [Equivalence 38 - Jieux - Same State NG 2] (Eterna round: R96, puzzle: Same State NG 2) |  | 30.8 | 21 | 33.9 |  | 
24 | AGCUAUUACGAAGGAUAUUGUGACAUGAGGAUCACCCAUGUUUUCAUGAUUUAUUGUGAUCACGUCGAGAAGGUUGUACUAACA [SameState NG2 #29] (Eterna round: R96, puzzle: Same State NG 2) |  | 59.2 | 50.8 | 51.8 |  | 
25 | ACAAGCUUUUCUGUAUUGAAAGGUGGGAUACAUGAGGAUCACCCAUGUUUUUUUGUUUAUAUUUGUCCUCGUCUUAU [JR_SHM208A_Sub087] (puzzle: Sensor for hsa-mir-208a) | 33.2 |  |  |  | 52.7 | 46.7
26 | UCAAGCGUUUGGCUCGUUUUAUGUGUUGAACAUGAGGAUCACCCAUGUAUUGUACGAUCCAGUUAGAUGGUAUUUUG [JR_SHM208A_Sub040] (puzzle: Sensor for hsa-mir-208a) | 104 |  |  |  | 46.9 | 67.6
27 | GGUUUAGUCAAGUGCCGUUGCACUUGAAAACAUGAGGAUCACCCAUGUUUGGGACAAGCUUUGCUCCUCGUCUUUCC [Tiatmaraen] (puzzle: Sensor for hsa-mir-208a) | 66.3 |  |  |  | 477 | 591
28 | UGUUCGUAGGAAGGAUAUCGAAAUAAAGGCGUCCACAUGAGGAUCACCCAUGUCGGCGGACCAAACGAGAAGGUCUACCCGGAC [Eternabot solution 12] (Eterna round: R96, puzzle: Same State NG 2) |  | 9.42 | 8.37 | 11.6 |  | 
29 | AUAGUUUCCGAAGGAUAUGAUGAGGAUCACCCAUCAGAAGGUUGGCUAUUGGGCUGACAUGAGGAUCACCCAUGUUUCGGUGUU (Eterna round: R96, puzzle: Same State NG 1) |  | 33 | 29.1 | 41.4 |  | 
30 | GGUAGGUUACUACCAAACAUGAGGAUCACCCAUGUUGAUGGGAAGGAUAUGGUACCUUUUAGGUACCAGAAGGUCUACUCGAUC [NGss mod of JL's mod of Fisker 3] (Eterna round: R96, puzzle: Same State NG 3) |  | 111 | 106 | 148 |  | 
31 | GGUCCAGCCUGAGCUGGACAAAAGCAUGUACAUGAGGAUCACCCAUGUCAUGUACAAGCUUUUUGCUCGUCAUAAUG [Mat - hsa-mir-208a - 99] (puzzle: Sensor for hsa-mir-208a) | 18.6 |  |  |  | 713 | 806
32 | ACUUGCGGCACAGGAUAUGGGUGCCUGUACAUGAGGAUCACCCAUGUUAAGGGACGGAUUACGAACCAGAAGGGUGAGGCGGGC [Aqube] (Eterna round: R96, puzzle: Same State NG 2) |  | 1350 | 296 | 300 |  | 

Source: the supplement of paper PMC9170038
